Measurements reported in PMC4267625, “Ubiquitin recognition by FAAP20 expands the complex interface beyond the canonical UBZ domain” (Nucleic Acids Research, 2014).
Where a chain is given by its changes, count along the chain named. In names and notes the source's numbering stands. Each block holds one binder with its values, some of them ahead of it.

Target: T1, human ubiquitin, wild type (human, UniProt P0CG48 1-76)
T1 construct: ubiquitin, human; the mature ubiquitin unit cut from its precursor; also called WT ubiquitin; source: E. coli BL21 STAR (DE3), purified (Ni-NTA, thrombin cleavage, benzamidine column, second Ni-NTA, Superdex 75); not shown: His6, N-terminal, cleaved
Assay: ITC; ubiquitin (2-3 mM) titrated into FAAP20 (0.2-0.3 mM); 25 mM sodium phosphate, 100 mM KCl, pH 7.0; 25°C; 28 injections of 10 μl; one-site binding fit
Settings: both partners purified

Kd: 9.26 µM
B1: human FAAP20 UBZ (residues 140-180 of FAAP20 isoform 2), wild type (domain or fragment, UniProt Q6NZ36 140-180, looked up)
chain: GAAALRSCPMCQKEFAPRLTQLDVDSHLAQCLAESTEDVTW
notes: ends at the C-terminal W180; ZnSO4 was added at induction; 15N/13C-labelled for NMR; also called WT FAAP20; apo FAAP20; source: E. coli BL21 STAR (DE3), purified (Ni-NTA, TEV cleavage, second Ni-NTA, Superdex 75); not shown: His10, N-terminal, cleaved; GB1, N-terminal, cleaved

Kd: > 600 µM
B3: human FAAP20 UBZ W180A (domain or fragment, UniProt Q6NZ36 140-180, looked up)
chain: B1 chain with W41A
notes: also called FAAP20 W180A mutant; source: E. coli BL21 STAR (DE3), purified (Ni-NTA, TEV cleavage, second Ni-NTA, Superdex 75); not shown: His10, N-terminal, cleaved; GB1, N-terminal, cleaved

Kd: > 600 µM
B5: human FAAP20 UBZ D164A (domain or fragment, UniProt Q6NZ36 140-180, looked up)
chain: B1 chain with D25A
notes: source: E. coli BL21 STAR (DE3), purified (Ni-NTA, TEV cleavage, second Ni-NTA, Superdex 75); not shown: His10, N-terminal, cleaved; GB1, N-terminal, cleaved

Further lines, the binder ahead of its results:

B2: human FAAP20 UBZ A168Y (domain or fragment, UniProt Q6NZ36 140-180, looked up)
chain: B1 chain with A29Y
notes: as for B5
Kd: > 600 µM

B4: human FAAP20 UBZ L171A (domain or fragment, UniProt Q6NZ36 140-180, looked up)
chain: B1 chain with L32A
notes: as for B5
Kd: 529 µM
